Here are results for five molecules from article PMC11263360, “The structural basis of the activation and inhibition of DSR2 NADase by phage proteins” (Nature Communications, 2024).

Changes are numbered by the printed parent chain. Numbers in names are those of the source.

As usually defined, the stoichiometry N is a count of units in the complex or per binding partner.

B1: DSR2 from Bacillus subtilis 29 R, wild type (enzyme, UniProt P0DXN8 1-1005, looked up)
chain: MVKVDLESKRYGEKLKEVFLMLDNNVVECIKEITESSRNGKLVFFVGAGVSTLSDYPQWWRLVDKYHEELYGSPKKGNYSSDEYLRIPQIFYNVKGEMAFDGILKDFFQVDKPTNPIHDKILAMNPAHVITTNYDNLIDTACWKRGKYFSVISAEEDVANATSSRYLLKVHGDFRKGFKGENVVLKEDDYLNYDQNYPLISNLMKTIIATHTIVFIGYGLGDYNINMLLNWVRKLQKDSFHKPFFIRTDPSPIENETLIYYENKGLRIIDAASLIDSNEYDYLERYSAVMDLLIESQENKFITKDDEVIDYIYGKISPLFALQYIRKIDLKHVFEYDYHFEVNGTVVRHKNKGFGYMERFFELKESCDERSKLSKKQYERFNALFNFFEKNGVICMAKDAGTLNTSIEINSLAYHGKYDVMKKFIEEQSVSIEDDYKKAFFLACLGRWEESYDLYSNIILNSIDESNGCVYYLSQINRYRIYQSITQAVTQFNGLGLLTFGRHYKPFTDEFLARIEREMTNFNIDDLFNGMPFEFQKKYKILEFLSDNQFLYDDTVKLFELTNKVRSEMSEGSYSFGMSSDIVVLLRLYDNLRFLYENCLWSVSFHEFHQYIRNSMSLLIEKAEYERTRDIDELGFSFFGKKSGFFMEYYDFVNISRHFKIDDIKNLERSCSIDKIRFGEQEKIEEYLVGIAEEITKQFSANGMNVVFYTQFISEAKAALYFAKYVKLSEEGLGKIVKALLFYFPERDLDIGKRYVWLERLTKCNELPKSIISIIDDFLVLQAEKHIDQNYSEVSSNGLYSRDYGALIKHFEKNFISKRLSEITLCLTQDKQKQIDFLFKLLPLLSTNAKSHLLSFKSVENINDLMNGIRIGLIDEFTPEHEELIIEYLETRKVNYIVEKEKGIQTFSSNDYMSTFGIWYFLEEINNSKMEEFIGMDDQYDFFVDPENFDYKKFIPSWLKNYNDKLLGKIAGNKHMKHHVIEVLKERVKNSNDKRYLEILMNYFI
notes: DSR2, Sir2 domain-containing NADase, Bacillus subtilis 29 R, WP_029317421, full length (domains described over residues 1-1005); Cloned into pRSF-32M or pET-32M.3C (both add N-terminal thioredoxin and 6xHis); Crosslinked with BS3 for part of the cryo-EM data; also called WT DSR2; wild-type (WT) DSR2; source: E. coli BL21 (DE3), purified (Ni-NTA, size exclusion); for the DSR2-DSAD1 complex …
B2: DSR2 (H171A) catalytically inactive mutant (enzyme, Bacillus subtilis 29 R, UniProt P0DXN8 1-1005, looked up)
chain: B1 chain with H171A
notes: DSR2, Bacillus subtilis 29 R, WP_029317421, full length, with H171A; Crosslinked with 1 mM BS3 before cryo-EM; source: E. coli BL21 (DE3), purified (Ni-NTA, size exclusion)
B3: DSR2 Y260E mutant (enzyme, Bacillus subtilis 29 R, UniProt P0DXN8 1-1005, looked up)
chain: B1 chain with Y260E
notes: DSR2, Bacillus subtilis 29 R, WP_029317421, full length, with Y260E; AUC mass 215 kDa against 425 kDa for the wild type; source: E. coli BL21 (DE3), purified
B4: tail tube protein (TTP) from SPR phage (natural protein, UniProt A0AAE9G628 1-264, looked up)
chain: MKTVIQDTADVYFKRKSDGKLVFTAEAQTASFSQAISEEKLRGGIGNKPLYILKSEKEINLTVKNAFFDLEWLAMTQGETIQEETKVKVFDREHGLIVDDTNKVTLKGKPVSDVTFYNKKGLTYKIAVSTDGTYTIPTAFAAAKDKLTAVYQIEKVGRRLAIKASKFSERYEVEYRTIAYNPDTEEVYSDIYIQFPNVSPSGEFEMSLENGNALAPEIKFEALADTDTDEMAVVIEASRDENTAAPVEDTTGSTQSSDLGGTTE
notes: tail tube protein (TTP), SPR phage, WP_010328117, full length; Residues 80-167 have no density in the cryo-EM map; source: E. coli BL21 (DE3), purified (Ni-NTA, size exclusion)
B5: DSAD1 from SPbeta phage (co-expressed with DSR2) (natural protein, UniProt Q796A8 1-120, looked up)
chain: MIEIFKDTGATHDLVYHSKINTFVWDVEFDIVLSDSKELNKCYFVKCFNPYRINGKCDFAVSSIDIFSEGKRLLIENEFNFKITKAVHVATSKDVTEIVLHLSERISSPFPIVKEVVYLD
notes: DSAD1, SPbeta phage, WP_004399562, full length; source: E. coli BL21 (DE3), co-expressed with DSR2, complex co-purified (as apo DSR2: Ni-NTA, size exclusion)

Data set [1] deals with the molecule itself. As to the kind of experiment: cryo-EM structure; DSR2-DSAD1 complex co-expressed in E. coli and co-purified; uncrosslinked and BS3-crosslinked samples.
Data set [2] concerns the molecule itself. As to the kind of experiment: cryo-EM structure; DSR2 (H171A) alone, crosslinked with 1 mM BS3 in the presence of NAD+; 20 mM HEPES pH 7.5, 100 mM NaCl, 0.5 mM TCEP.
Data set [3] concerns the molecule itself. As to the kind of experiment: AUC; sedimentation velocity, 12 °C, 0.8 mg/ml, 20 mM Tris-HCl pH 7.5, 100 mM NaCl, 1 mM DTT; SEDFIT.
Data set [4] has as its target B2. As to the kind of experiment: cryo-EM structure; purified DSR2 (H171A)-TTP complex, crosslinked with 1 mM BS3, with 1 mM NAD+; 20 mM HEPES pH 7.5, 100 mM NaCl, 0.5 mM TCEP. Conditions: both partners purified.
Data set [5] has as its target B1. Kind of data set: cryo-EM structure; DSR2-DSAD1 complex co-expressed in E. coli and co-purified; uncrosslinked and BS3-crosslinked samples. The settings on record: both partners purified.

Regarding B1, the “stoichiometry N” value in data set [1] was 4.
For the molecule B2, in data set [2], the “stoichiometry N” value turned out to be 4.
On to B3, for which the binding result in data set [3] was “binds”.
For the molecule B4, the “stoichiometry N” value in data set [4] was 0.5 TTP per DSR2 (2:4).
On to B5, for which, in data set [5], the “stoichiometry N” value is 0.5 DSAD1 per DSR2 (2:4).
